# Measurements: publication PMC10762068, “Selective blockade of Cav1.2 (α1C) versus Cav1.3 (α1D) L-type calcium channels by the black mamba toxin calciseptine” (Nature Communications, 2024)
# B1: calciseptine, synthetized analog (Latoxan L8109) (peptide)
# chain: RICYIHKASLPRATKTCVENTCYKMFIRTQREYISERGCGCPTAMWPYQTECCKGDRCNK
# Experiments:
# Cav1.2 and Cav1.3 = details: cited from earlier work
# Excerpt: Despite the importance of dissecting the physiopathological roles of Cav1.2 and Cav1.3 channels in cardiac myocytes and neuronal cells, no selective pharmacological tool is currently available. […] Both distinct and complementary functions for Cav1.2 and Cav1.3 have been proposed in the central nervous system. For example, Cav1.2 is involved in hippocampal firing, spatial memory and LTP[52], as well as in the myelinisation process.
# [1] = system: total ICaL (ICav1.2+ICav1.3) in SAN myocytes from wild-type mice; test: ICaL, patch clamp, SAN myocytes from wild-type mice; format: cell-based, mouse; details: nifedipine 3 µM after Cas 1 µM; holding −55 mV
# Method: (§1) Hearts from Wild-Type and Cav1.3^−/− mice were removed under general anesthesia consisting of 0.01 mg/g xylazine (2% Rompun; Bayer AG) and 0.1 mg/g ketamine (Imalgène;Merial) and immersed in a pre-warmed (36 °C) Tyrode solution containing (mM): 140 NaCl, 5.4 KCl, 1 MgCl2, 1.8 CaCl2, 5.5 D-glucose, and 5 Hepes (adjusted to pH 7.4 with NaOH). […] SAN tissue was excised and transferred into a low-Ca^2+ solution containing (mM): 140 NaCl, 5.4 KCl, 0.5 MgCl2, 0.2 CaCl2, 1.2 KH2PO4, 50 taurine, 5.5 D-glucose, 1 mg/mL BSA, and 5 Hepes–NaOH (adjusted to pH 6.9 with NaOH) for 5 min. Then, enzymatic digestion was carried out for 20-25 min at 36 °C in the low-Ca^2+ solution containing LiberaseTH Research Grade (0.15 mg/mL; Roche, Mannheim, Germany) and elastase (0.5 mg/mL; Worthington, Lakewood, NJ, USA). Digestion was stopped by washing the SAN in a “Kraftbrühe” (KB) medium containing (mM) 100 K-glutamate, 10 K-aspartate, 25 KCl, 10 KH2PO4, 2 MgSO4, 20 taurine, 5 creatine, 0.5 EGTA, 20 D-glucose, 5 Hepes, and 1 mg/mL BSA (adjusted to pH 7.2 with KOH). Single SAN cells were then dissociated from the SAN tissue by manual agitation using a flame-forged Pasteur’s pipette. To recover the automaticity of the SAN cells, Ca^2+ was gradually reintroduced in the cell’s storage solution to a final concentration of 1.8 mM. SAN cells were then left to rest for 1 h before recordings.
# (§2) For patch-clamp recordings of SAN myocytes, cells were harvested in custom-made chambers with glass bottoms for cell attachment. Cells were then super-fused with Tyrode’s solution warmed at 36 °C before recording. Action potentials and ionic currents were recorded using an Axon multi-clamp patch-clamp 700B amplifier. Voltage-gated L-type Ca^2+ currents (ICaL) were recorded using standard whole cell patch-clamp configuration. For recording ICaL, we used an extracellular recording solution contained (mM): 135 tetraethylammonium chloride (TEA-Cl), 10 4-aminopyridine (4-AP), 1 MgCl2, 0.03 tetrodotoxin (TTX), 1 g/L Glucose, 2 CaCl2, 10 Hepes, (adjusted to pH = 7.2 with TEAOH). […] Pacemaker activity was recorded by the perforated patch-clamp technique using escin (40 µg/ml). For recording cell automaticity glass pipettes were filled with the intracellular solution contained (mM): 80 K-Aspartate, 50 KCl, 1 MgCl2, 5 HEPES, 2 CaCl2, 5 EGTA, 3 ATP-Na+ salt; pH was adjusted to 7.2 with KOH. Escin was dissolved in sterile H2O and added to the intracellular solution right before each experiment.
# (§3) In all experiments of cellular electrophysiology, we employed synthetized analog of Cas, commercially available at Latoxan (ID: L8109). The native peptide was purified from the venom of Dendroaspis polylepis purchased from Latoxan, as previoulsly described. The pure peptide was obtained after gel filtration, cation exchange and C18 reversed phase chromatography. Its measured molecular mass (7036.26 Da average) was in accordance with the mass calculated from sequence data (7036.22 Da).
# [2] = system: SAN myocytes from Wild-Type mice; test: Spontaneous action potentials, perforated patch-clamp, SAN pacemaker myocytes; format: cell-based, mouse; details: nifedipine (in Table 1 only 3 µM together with Cas)
# Method: as §1, §2
# We used an extracellular recording solution (Tyrode’s based) contained (mM): 140 NaCl, 5.4 KCl, 1 MgCl2, 1.8 CaCl2, 5 HEPES, 5.5 D-Glucose; pH was set to 7.4 with NaOH. AP parameters have been calculated as reported in Baudot et al.[10]. Data were analyzed using pCLAMP9 (Molecular Devices) and GraphPad Prism (GraphPad) software.
# as §3
# [3] = system: Cav1.2 (ICav1.2) in isolated adult mouse ventricular myocytes; format: cell-based; details: L-calchin 5 µM; preliminary; n=7/N=2
# isolated rat hearts = details: cited from earlier work
# Excerpt: (§4) A common short peptide between two Prolines at position 42 and 47 (PTAMWP) was predicted as the binding site for Cas and FS2 by Kini and co-workers[49]. […] Similar to Cas, block by L-calchin had no ef ...
# [4] = system: calcium channel in rabbit cardiac myocytes; details: reduction of calcium channel amplitude; cited from earlier work
# Excerpt: as §4
# [5] = target: native mouse Cav1.2 L-type calcium channel in cardiac myocytes (mouse (endogenous in cardiac myocytes)) (UniProt Q01815)
# Chain of native mouse Cav1.2 L-type calcium channel in cardiac myocytes (mouse (endogenous in cardiac myocytes)) (Q01815 whole entry): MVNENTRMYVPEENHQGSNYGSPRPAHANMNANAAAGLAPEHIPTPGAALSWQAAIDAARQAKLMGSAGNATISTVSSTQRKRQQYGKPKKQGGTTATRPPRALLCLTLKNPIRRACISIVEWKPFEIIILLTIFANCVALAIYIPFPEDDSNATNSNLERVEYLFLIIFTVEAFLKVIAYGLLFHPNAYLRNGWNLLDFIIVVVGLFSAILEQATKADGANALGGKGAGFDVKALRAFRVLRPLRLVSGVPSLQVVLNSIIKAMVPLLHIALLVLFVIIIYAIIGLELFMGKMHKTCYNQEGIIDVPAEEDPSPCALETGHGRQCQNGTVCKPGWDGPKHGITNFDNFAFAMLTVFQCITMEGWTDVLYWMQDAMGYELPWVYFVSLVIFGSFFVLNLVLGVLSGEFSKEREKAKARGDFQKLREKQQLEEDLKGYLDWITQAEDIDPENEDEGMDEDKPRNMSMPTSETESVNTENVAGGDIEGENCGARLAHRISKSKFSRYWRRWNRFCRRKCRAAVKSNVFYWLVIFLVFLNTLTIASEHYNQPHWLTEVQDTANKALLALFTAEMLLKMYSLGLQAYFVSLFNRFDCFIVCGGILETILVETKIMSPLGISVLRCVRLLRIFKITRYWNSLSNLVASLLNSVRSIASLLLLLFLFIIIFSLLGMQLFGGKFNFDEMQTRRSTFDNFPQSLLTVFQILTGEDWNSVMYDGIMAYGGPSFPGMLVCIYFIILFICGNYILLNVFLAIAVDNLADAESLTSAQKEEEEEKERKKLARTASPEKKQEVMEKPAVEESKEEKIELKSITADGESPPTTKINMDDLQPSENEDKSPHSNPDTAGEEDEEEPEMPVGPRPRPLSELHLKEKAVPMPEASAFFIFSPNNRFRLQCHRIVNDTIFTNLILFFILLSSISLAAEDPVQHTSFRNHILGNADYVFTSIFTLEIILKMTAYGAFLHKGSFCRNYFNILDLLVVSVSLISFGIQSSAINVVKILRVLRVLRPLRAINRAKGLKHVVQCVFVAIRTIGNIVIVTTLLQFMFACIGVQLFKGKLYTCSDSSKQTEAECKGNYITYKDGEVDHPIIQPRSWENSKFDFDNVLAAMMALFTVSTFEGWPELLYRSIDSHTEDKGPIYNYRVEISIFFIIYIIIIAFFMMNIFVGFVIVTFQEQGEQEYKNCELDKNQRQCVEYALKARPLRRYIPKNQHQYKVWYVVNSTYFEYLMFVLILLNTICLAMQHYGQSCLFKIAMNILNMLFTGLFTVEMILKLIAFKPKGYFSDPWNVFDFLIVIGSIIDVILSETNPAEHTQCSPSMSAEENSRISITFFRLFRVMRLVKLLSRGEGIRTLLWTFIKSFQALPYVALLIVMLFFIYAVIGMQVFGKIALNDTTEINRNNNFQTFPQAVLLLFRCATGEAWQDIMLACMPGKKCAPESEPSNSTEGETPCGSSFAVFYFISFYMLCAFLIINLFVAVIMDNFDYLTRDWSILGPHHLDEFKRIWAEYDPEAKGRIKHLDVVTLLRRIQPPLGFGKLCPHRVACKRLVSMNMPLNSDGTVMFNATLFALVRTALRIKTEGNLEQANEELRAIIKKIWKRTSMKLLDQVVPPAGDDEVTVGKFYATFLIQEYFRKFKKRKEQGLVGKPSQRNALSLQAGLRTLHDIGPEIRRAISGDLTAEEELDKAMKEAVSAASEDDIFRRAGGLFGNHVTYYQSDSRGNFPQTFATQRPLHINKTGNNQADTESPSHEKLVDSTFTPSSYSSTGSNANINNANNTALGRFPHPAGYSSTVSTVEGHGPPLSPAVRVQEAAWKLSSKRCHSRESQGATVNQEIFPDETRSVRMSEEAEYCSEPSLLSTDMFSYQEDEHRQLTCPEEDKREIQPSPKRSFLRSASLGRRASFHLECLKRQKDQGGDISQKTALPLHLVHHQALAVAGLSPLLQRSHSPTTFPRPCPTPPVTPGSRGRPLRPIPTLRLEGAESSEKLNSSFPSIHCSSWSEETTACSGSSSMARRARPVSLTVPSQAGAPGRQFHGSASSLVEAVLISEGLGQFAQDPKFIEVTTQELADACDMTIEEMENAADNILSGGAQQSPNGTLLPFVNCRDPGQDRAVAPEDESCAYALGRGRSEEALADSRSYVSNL
# [6] = target: native mouse Cav1.2 L-type calcium channel in cardiac myocytes (mouse (endogenous in cardiac myocytes)) (UniProt Q01815); remark: listed apart in the source
# [7] = target: recombinant Cav1.2 (α1C) L-type calcium channel, Cav1.2-GFP (UniProt Q13936)
# Chain of recombinant Cav1.2 (α1C) L-type calcium channel, Cav1.2-GFP (Q13936 other isoform, or with tags, fused parts or gaps): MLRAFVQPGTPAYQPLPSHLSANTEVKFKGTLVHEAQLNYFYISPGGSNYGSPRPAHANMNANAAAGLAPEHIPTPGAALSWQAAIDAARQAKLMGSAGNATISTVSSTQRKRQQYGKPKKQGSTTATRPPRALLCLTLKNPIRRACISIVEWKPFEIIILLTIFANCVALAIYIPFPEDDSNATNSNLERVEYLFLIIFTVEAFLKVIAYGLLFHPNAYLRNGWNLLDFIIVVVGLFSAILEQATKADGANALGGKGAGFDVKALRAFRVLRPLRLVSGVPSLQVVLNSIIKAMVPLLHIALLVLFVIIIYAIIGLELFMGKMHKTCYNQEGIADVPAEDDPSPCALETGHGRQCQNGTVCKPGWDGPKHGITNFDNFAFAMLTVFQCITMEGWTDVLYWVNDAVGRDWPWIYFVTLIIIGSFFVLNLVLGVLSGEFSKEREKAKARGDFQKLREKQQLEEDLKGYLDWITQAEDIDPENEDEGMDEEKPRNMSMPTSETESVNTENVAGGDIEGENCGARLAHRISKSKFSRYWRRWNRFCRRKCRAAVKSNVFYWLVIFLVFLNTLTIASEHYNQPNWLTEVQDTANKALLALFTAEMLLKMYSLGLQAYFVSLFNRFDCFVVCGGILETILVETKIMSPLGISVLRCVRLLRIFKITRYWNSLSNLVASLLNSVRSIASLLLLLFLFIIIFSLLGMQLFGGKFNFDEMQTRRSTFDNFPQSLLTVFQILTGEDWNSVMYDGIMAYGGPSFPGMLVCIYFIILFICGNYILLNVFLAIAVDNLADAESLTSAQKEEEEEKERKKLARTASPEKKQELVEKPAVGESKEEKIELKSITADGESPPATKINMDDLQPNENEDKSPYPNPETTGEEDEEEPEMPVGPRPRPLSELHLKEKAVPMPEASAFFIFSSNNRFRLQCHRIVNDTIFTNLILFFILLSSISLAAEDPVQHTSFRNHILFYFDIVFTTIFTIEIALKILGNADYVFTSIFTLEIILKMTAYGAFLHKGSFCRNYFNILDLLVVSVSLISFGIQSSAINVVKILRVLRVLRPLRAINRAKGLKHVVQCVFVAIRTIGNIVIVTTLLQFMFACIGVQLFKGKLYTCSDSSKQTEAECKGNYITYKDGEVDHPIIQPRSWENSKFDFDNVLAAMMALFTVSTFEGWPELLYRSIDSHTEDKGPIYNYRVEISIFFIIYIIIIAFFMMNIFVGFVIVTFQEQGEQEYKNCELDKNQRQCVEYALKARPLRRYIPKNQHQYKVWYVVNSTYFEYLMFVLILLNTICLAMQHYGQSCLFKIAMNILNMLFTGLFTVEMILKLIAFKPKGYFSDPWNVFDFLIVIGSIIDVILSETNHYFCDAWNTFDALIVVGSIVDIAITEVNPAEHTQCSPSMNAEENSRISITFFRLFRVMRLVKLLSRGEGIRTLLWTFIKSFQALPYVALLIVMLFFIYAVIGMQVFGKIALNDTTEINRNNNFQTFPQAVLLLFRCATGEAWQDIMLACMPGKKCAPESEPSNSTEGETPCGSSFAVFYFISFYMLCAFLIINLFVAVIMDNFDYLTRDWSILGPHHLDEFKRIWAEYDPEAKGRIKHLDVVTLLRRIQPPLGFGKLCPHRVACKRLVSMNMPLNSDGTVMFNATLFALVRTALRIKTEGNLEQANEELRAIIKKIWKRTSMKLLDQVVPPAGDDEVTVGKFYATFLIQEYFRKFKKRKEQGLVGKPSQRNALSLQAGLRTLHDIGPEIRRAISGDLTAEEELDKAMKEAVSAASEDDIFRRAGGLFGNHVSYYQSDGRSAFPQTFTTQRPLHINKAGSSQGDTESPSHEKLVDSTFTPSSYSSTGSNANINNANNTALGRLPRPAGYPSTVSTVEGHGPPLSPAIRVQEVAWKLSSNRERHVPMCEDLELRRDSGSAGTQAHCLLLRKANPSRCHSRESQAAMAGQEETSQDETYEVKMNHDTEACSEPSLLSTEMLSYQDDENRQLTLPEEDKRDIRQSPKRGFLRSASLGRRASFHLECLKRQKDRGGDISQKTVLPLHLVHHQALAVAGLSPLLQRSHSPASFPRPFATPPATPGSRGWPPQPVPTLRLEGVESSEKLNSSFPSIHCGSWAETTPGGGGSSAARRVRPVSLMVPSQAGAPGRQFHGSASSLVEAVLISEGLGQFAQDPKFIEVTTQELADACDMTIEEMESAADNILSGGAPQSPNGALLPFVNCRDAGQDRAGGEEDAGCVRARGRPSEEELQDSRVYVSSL
# [8] = target: native mouse Cav1.2 L-type calcium channel in cardiac myocytes (mouse (endogenous in cardiac myocytes)) (UniProt Q01815); remark: listed apart in the source
molecule,measurement,setting,value
COc1ccc([C@@H]2Sc3ccccc3N(CCN(C)C)C(=O)[C@@H]2OC(C)=O)cc1 [Diltiazem],selectivity between Cav1.2 and Cav1.3,Cav1.2 and Cav1.3,without significant selectivity
COc1ccc(CCN(C)CCCC(C#N)(c2ccc(OC)c(OC)c2)C(C)C)cc1OC (stereo not drawn) [Verapamil],selectivity between Cav1.2 and Cav1.3,Cav1.2 and Cav1.3,without significant selectivity
"COC(=O)C1=C(C)NC(C)=C(C(=O)OC)C1c1ccccc1[N+](=O)[O-] [nifedipine, reference compound]",block of residual ICaL (Cav1.3-mediated),[1],totally blocked
same,effect on pacemaker activity of SAN myocytes,[2],robustly slows pacemaker activity
"PTAMWP [L-calchin, short peptide between two Prolines at position 42 and 47 (PTAMWP) of Cas and FS2]",reduction of ICav1.2,[3],≈ 30%
same,effect on peak systolic pressure,isolated rat hearts,reducing peak systolic pressure
same,effect on heart rate,isolated rat hearts; ex vivo,had no effect on heart rate
same,IC50,[4],~5000 nM
PTAMWP [L-calchin],reduction of I (Cav1.2) in dissociated mouse ventricular myocytes by synthetic L-calchin (preliminary experiments; concentration not stated),[5],30%
B1,"degree of inhibition of ICaL by 300 nM Cas, step to 0 mV from −60 mV, stimulation at 0.2 Hz",[6],62%
same,"degree of inhibition of ICaL by 300 nM Cas, step to 0 mV from −60 mV, stimulation at 1 Hz",[6],63%
same,"degree of inhibition of ICaL by 300 nM Cas, step to 0 mV from −60 mV, stimulation at 5 Hz",[6],58%
same,"percent block of Cav1.2-mediated ICaL in Cav1.3−/− SAN myocytes, 300 nM Cas, step to 0 mV from a holding potential of −40 mV",[6],68%
same,"percent block of Cav1.2-mediated ICaL in Cav1.3−/− SAN myocytes, 300 nM Cas, step to 0 mV from a holding potential of −60 mV",[6],67%
same,"IC50 of inhibition of I (Cav1.2), whole-cell patch clamp on transfected HEK-293T cells (holding potential −60 mV, test 0 mV), dose-effect relationship",[7],92 nM
same,"inhibition of I (Cav1.2) in averaged current-to-voltage relationships, 300 nM Cas, membrane voltages from −20 mV to +30 mV, transfected HEK-293T cells",[7],60%
same,"percent inhibition of I (Cav1.2) in transfected HEK-293T cells, one-step protocol (−60 mV to 0 mV), Cas 100 nM to 1 µM (37% at 100 nM, 70% at 300 nM, 80% at 1 µM)",[7],80%
same,"reduction of total ICaL (I (Cav1.2)+I (Cav1.3)) in wild-type mouse SAN myocytes, voltage clamp, 1 µM Cas",[8],45%
